# Target: mouse TLR5 (toll-like receptor 5) expressed on HEK293/mTLR5 cell line (mouse) (UniProt Q9JLF7)
# Assay: cell-based or functional assay
# Chain of UniProt Q9JLF7 (Q9JLF7 27-859): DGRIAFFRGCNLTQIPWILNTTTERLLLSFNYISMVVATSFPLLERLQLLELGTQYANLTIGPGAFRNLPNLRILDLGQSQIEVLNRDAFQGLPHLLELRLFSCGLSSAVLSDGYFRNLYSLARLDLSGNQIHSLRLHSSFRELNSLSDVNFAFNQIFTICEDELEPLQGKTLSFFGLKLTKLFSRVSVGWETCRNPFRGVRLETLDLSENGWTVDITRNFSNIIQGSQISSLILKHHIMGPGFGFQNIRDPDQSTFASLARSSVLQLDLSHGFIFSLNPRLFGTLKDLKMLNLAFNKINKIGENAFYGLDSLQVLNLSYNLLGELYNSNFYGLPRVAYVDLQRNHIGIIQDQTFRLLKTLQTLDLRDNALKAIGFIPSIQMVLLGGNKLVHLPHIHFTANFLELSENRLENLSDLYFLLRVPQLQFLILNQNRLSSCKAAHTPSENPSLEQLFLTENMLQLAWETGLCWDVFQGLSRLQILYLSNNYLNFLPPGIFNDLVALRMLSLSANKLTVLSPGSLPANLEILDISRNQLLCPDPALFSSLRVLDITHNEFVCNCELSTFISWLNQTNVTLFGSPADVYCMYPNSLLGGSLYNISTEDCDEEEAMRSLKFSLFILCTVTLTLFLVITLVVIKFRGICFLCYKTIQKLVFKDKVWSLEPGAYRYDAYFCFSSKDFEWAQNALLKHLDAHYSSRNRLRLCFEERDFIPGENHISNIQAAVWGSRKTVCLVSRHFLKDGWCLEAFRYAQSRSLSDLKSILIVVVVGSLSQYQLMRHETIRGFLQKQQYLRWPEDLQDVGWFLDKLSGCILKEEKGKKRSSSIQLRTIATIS
substance,measurement,value
"sgFliC (Salmonella gallinarum-derived FliC, filament structural protein, expressed from psgFliC and secreted by attenuated Salmonella gallinarum SG4052) (from UniProt Q06972 1-494) (ligand)",QUANTI-Blue SEAP assay using HEK293/mTLR5 cell line (TLR5 stimulation relative to FLA-ST),2 fold

# Reference: patent US20240240140A1
